Experimental data published in the Human Domainome abundance scans (Beltran et al. 2025).
± gives the uncertainty stated by the source.

B1: Chromodomain-helicase-DNA-binding protein 4, residues 444 to 496; numbered along this chain, Q14839 (parent)
chain: EDDHHMEFCRVCKDGGELLCCDTCPSSYHIHCLNPPLPEIPNGEWLCPRCTCP

Variants of: B1
Assay: abundance fitness (aPCA) (normalised: wild type 0, dead -1); higher = more abundant; growth selection in yeast, the domain comes from the species named
Details: Homo sapiens

Variant	abundance fitness
I40Y	0.016 ± 0.059
E44S	-0.018 ± 0.042
E44D	-0.156 ± 0.079
E44G	0.03 ± 0.056
E44H	-0.057 ± 0.061
E44A	-0.07 ± 0.051
E44V	-0.143 ± 0.055
E44N	0.095 ± 0.074
E44K	0.064 ± 0.073
E44T	-0.122 ± 0.063
E44I	-0.119 ± 0.076
E44Q	-0.104 ± 0.059
E44W	-0.413 ± 0.076
E44M	-0.084 ± 0.071
E44C	-0.21 ± 0.068
E44R	-0.001 ± 0.042
E44L	-0.024 ± 0.05
E44F	-0.152 ± 0.08
W45P	-0.503 ± 0.046
W45N	-0.428 ± 0.079
W45L	-0.591 ± 0.053
W45C	-0.616 ± 0.05
W45R	-0.446 ± 0.044

Variant	abundance fitness
W45D	-0.473 ± 0.072
W45T	-0.43 ± 0.047
W45G	-0.487 ± 0.05
W45K	-0.549 ± 0.066
W45E	-0.517 ± 0.055
W45I	-0.533 ± 0.082
W45Y	-0.357 ± 0.053
W45S	-0.443 ± 0.048
W45V	-0.431 ± 0.054
W45Q	-0.509 ± 0.065
W45H	-0.489 ± 0.065
W45F	-0.085 ± 0.084
W45M	-0.398 ± 0.063
W45A	-0.517 ± 0.057
T51Q	-0.03 ± 0.061
T51L	-0.003 ± 0.046
T51E	0.074 ± 0.074
T51H	-0.169 ± 0.08
T51S	0.013 ± 0.056
T51Y	-0.171 ± 0.072
T51M	-0.097 ± 0.056
T51K	-0.051 ± 0.082
T51P	0.031 ± 0.046

Variant	abundance fitness
T51R	-0.073 ± 0.053
T51G	-0.136 ± 0.042
T51D	0.152 ± 0.083
T51C	-0.151 ± 0.076
T51W	-0.12 ± 0.06
T51V	-0.048 ± 0.05
T51F	0.048 ± 0.077
T51N	0.12 ± 0.072
P41F	-0.06 ± 0.1
P41K	-0.118 ± 0.067
P41A	-0.146 ± 0.059
P41G	-0.133 ± 0.065
P41N	0.029 ± 0.081
P41S	-0.226 ± 0.059
P41H	-0.142 ± 0.053
P41Q	-0.18 ± 0.062
P41I	-0.106 ± 0.062
P41V	-0.154 ± 0.046
P41R	-0.144 ± 0.053
P41L	-0.228 ± 0.056
P41Y	-0.463 ± 0.093
P41M	-0.187 ± 0.05
P41E	-0.2 ± 0.06

Variant	abundance fitness
P41C	-0.135 ± 0.092
P41T	-0.114 ± 0.046
P41D	-0.282 ± 0.097
L46K	0.079 ± 0.061
L46V	0.106 ± 0.061
L46Y	-0.061 ± 0.07
L46R	0.008 ± 0.046
L46I	-0.012 ± 0.063
L46D	-0.252 ± 0.084
L46T	-0.02 ± 0.047
L46N	0.211 ± 0.066
L46Q	-0.019 ± 0.053
L46A	-0.033 ± 0.04
L46W	-0.266 ± 0.064
L46P	-0.426 ± 0.044
L46E	-0.092 ± 0.054
C52I	-0.189 ± 0.18
C52L	0 ± 0.11
C52V	0.032 ± 0.091
C52H	0.096 ± 0.16
C52Q	0.145 ± 0.068
C52G	0.294 ± 0.081
C52E	0.489 ± 0.12

Variant	abundance fitness
C52D	-0.218 ± 0.17
C52Y	-0.019 ± 0.097
C52N	-0.161 ± 0.16
C52S	-0.002 ± 0.11
C52M	0.433 ± 0.11
C52T	0.288 ± 0.13
C52F	-0.358 ± 0.23
C52W	-0.033 ± 0.14
C52P	-0.667 ± 0.34
R49H	0.047 ± 0.053
R49L	-0.101 ± 0.044
R49V	0.006 ± 0.051
R49A	0.019 ± 0.055
R49Q	0.034 ± 0.043
R49G	0.069 ± 0.041
R49E	-0.108 ± 0.079
R49S	-0.095 ± 0.047
R49I	0.016 ± 0.072
R49Y	-0.201 ± 0.086
R49P	-0.187 ± 0.049
R49M	-0.101 ± 0.054
R49F	-0.089 ± 0.06
R49D	0.145 ± 0.055

Variant	abundance fitness
R49T	0.043 ± 0.047
R49N	0.04 ± 0.063
R49W	-0.132 ± 0.051
C50P	-0.755 ± 0.047
C50N	-0.46 ± 0.092
C50Q	-0.769 ± 0.08
C50F	-0.895 ± 0.056
C50G	-0.727 ± 0.059
C50H	-0.286 ± 0.05
C50K	-0.58 ± 0.1
C50M	-0.986 ± 0.052
C50E	-0.708 ± 0.095
C50D	-0.633 ± 0.05
C50L	-0.845 ± 0.043
C50T	-0.78 ± 0.051
C50S	-0.622 ± 0.054
C50I	-1.08 ± 0.12
C50W	-1.11 ± 0.1
C50V	-0.791 ± 0.044
C50Y	-1.02 ± 0.13
